The source of these data is US9192657B2.

Experiment [1] deals with endothelial protein C receptor (EPCR) on cells (Homo sapiens (Human)) (UniProt Q9UNN8).
In experiment [2] the target is endothelial protein C receptor (EPCR), as in the binding assays (Homo sapiens (Human)) (UniProt Q9UNN8). Put plainly: apparent Kd; binding to immobilized soluble EPCR and to K293 cells transfected with wtEPCR (format of the value not told).
The target of experiment [3] is T1, PAR-1 N-terminal tail peptide (TR33-62) (artificial).
T1 sequence (peptide): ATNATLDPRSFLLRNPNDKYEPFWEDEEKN

Experiment [4] shares this target. The source holds these as a separate data set.

In experiment [1], “PTGla-APC (APC with prothrombin residues 1-46) (from UniProt P00734) (enzyme)” displayed a concentration for half-maximal inhibition of staurosporine-induced endothelial apoptosis (fold higher concentration) of 24. Moreover, the Kd in experiment [2] is over 300 nM. The substance RR229/230AA-APC (enzyme) displayed a PAR-1 peptide (TR33-62) cleavage (% rwt-APC), catalytic efficiency by HPLC in experiment [3] of 116 % rwt-APC.

In turn, S360A-APC (enzyme) registered a PAR-1 peptide (TR33-62) cleavage (% rwt-APC), catalytic efficiency by HPLC in experiment [3] of under 3 % rwt-APC.

In experiment [4], “recombinant wild-type activated protein C (enzyme)” had a cleavage of the TR33-62 peptide at Arg41, HPLC (fold lower kcat/Km than thrombin) of 25000.
